Article PMC5959753

Substrate: C[N+](C)(C)[C@@H](Cc1cnc([S+]([O-])C[C@H](N)C(=O)O)[nH]1)C(=O)[O-]
Test: purified protein
Details: pH 8.0, 25 °C, 1 mM DTT

B1: Egt2 (Neurospora crassa OR74A) (protein)
chain: MVATTVELPLQQKADAAQTVTGPLPFGNSLLKEFVLDPAYRNLNHGSFGTIPSAIQQKLRSYQTAAEARPCPFLRYQTPVLLDESRAAVANLLKVPVETVVFVANATMGVNTVLRNIVWSADGKDEILYFDTIYGACGKTIDYVIEDKRGIVSSRCIPLIYPAEDDDVVAAFRDAIKKSREEGKRPRLAVIDVVSSMPGVRFPFEDIVKICKEEEIISCVDGAQGIGMVDLKITETDPDFLISNCHKWLFTPRGCAVFYVPVRNQHLIRSTLPTSHGFVPQVGNRFNPLVPAGNKSAFVSNFEFVGTVDNSPFFCVKDAIKWREEVLGGEERIMEYMTKLAREGGQKVAEILGTRVLENSTGTLIRCAMVNIALPFVVGEDPKAPVKLTEKEEKDVEGLYEIPHEEANMAFKWMYNVLQDEFNTFVPMTFHRRRFWARLSAQVYLEMSDFEWAGKTLKELCERVAKGEYKESA
B1 was tested. Which Km did it give?
Its Km is 155 ± 10 µM.

What about the kcat of the same protein?
Its kcat is 8.7 ± 0.1 s⁻¹.
